The target of this assay is T1, hamster phospholipase B-like 2 (PLBL2) (hamster, UniProt G3I6T1 38-585, Used as two conjugates: one with biotin (Biotin-PLBL2) and one with digoxigenin (DIG-PLBL2). Conjugation sites are not stated. Natural mannose-6-phosphate glycans are not carried by the letters.).
T1 construct: Purified hamster PLBL2; also called PLB2; PLBD2
T1 sequence: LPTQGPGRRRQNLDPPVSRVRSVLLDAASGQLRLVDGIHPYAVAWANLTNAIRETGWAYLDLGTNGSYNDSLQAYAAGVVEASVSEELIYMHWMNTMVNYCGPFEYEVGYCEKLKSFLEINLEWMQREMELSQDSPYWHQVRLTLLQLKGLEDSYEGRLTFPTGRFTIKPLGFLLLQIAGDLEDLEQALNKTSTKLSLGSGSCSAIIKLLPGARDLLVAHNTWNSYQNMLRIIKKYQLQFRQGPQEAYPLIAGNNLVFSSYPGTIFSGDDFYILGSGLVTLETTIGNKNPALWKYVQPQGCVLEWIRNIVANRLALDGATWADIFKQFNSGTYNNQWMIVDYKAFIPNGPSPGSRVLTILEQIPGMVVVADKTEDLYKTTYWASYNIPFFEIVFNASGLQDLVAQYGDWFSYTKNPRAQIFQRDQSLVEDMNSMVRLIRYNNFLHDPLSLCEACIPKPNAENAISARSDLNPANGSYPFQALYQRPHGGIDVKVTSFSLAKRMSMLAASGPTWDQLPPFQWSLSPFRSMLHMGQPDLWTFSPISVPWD
Kind of assay: bridging ELISA with Biotin-PLBL2 and DIG-PLBL2, drug tolerance experiment in serum. As to the method:
The antibody bridging ELISA assay that was developed and validated to detect antibodies to hamster PLBL2 in human serum used two conjugated reagents to capture all isotypes of antibodies directed against hamster PLBL2: purified hamster PLBL2 conjugated to biotin (Biotin-PLBL2) and purified hamster PLBL2 conjugated to digoxigenin (DIG-PLBL2). Production and purification of hamster PLBL2 was carried out using standard methods known to one skilled in the art is also described in U.S. Provisional Application Nos. 61/877,503 and 61/991,228 and conjugation to biotin or DIG were carried out using standard methods known to one skilled in the art. In this semi-homogenous antibody bridging ELISA assay, 75 μL/well of conjugated solution in assay diluent (PBS/0.5% BSA/0.05% Polysorbate 20/0.05% ProClin 300, pH 7.4±0.1) containing 3 μg/mL of each Biotin-PLBL2 and DIG-PLBL2 were co-incubated overnight (16-24 hours) at ambient temperature with 75 μL/well of 1:20 diluted serum samples and controls in assay diluent in polypropylene micronic tubes (National Scientific Supply Co.; Claremont, C A). […] The plates were read at 450 nm for detection absorbance and 630 nm for reference absorbance.

B1: lebrikizumab (antibody, human IgG4 S228P, kappa, V domains shown)
VH: VTLRESGPALVKPTQTLTLTCTVSGFSLSAYSVNWIRQPPGKALEWLAMIWGDGKIVYNSALKSRLTISKDTSKNQVVLTMTNMDPVDTATYYCAGDGYYPYAMDNWGQGSLVTVSS
VL: DIVMTQSPDSLSVSLGERATINCRASKSVDSYGNSFMHWYQQKPGQPPKLLIYLASNLESGVPDRFSGSGSGTDFTLTISSLQAEDVAVYYCQQNNEDPRTFGGGTKVEIKR
notes: Humanized IgG4; also called anti-IL13 MAb; anti-IL13 monoclonal antibody
B1: the binding result was “no binding (tested: 50 µg/mL)”.

The values are drawn from patent publication US20160319012A1 (Genentech, published 2016).
